Several values for one entry are separate records, joined by “and”; a condition that tells them apart may be missing. Equal entries are not always repeated.
How the values were obtained:
[1] = biological target: HTNV Gn ectodomain (Hantaan virus glycoprotein Gn, residues 18 to 371) (Hantaan virus (HTNV)); assay: crystal structure
[2] = biological target: HTNV Gn ectodomain (Hantaan virus glycoprotein Gn, residues 18 to 371) (Hantaan virus (HTNV)); assay: AUC

For “HTNV Gn ectodomain (Hantaan virus glycoprotein Gn, residues 18 to 371) (domain or fragment)”, the stoichiometry N [1] was 4 and the stoichiometry N [2] was 2 and 3 and 4.
